The supplement of paper PMC10567573
± gives the standard deviation.

Experiment: protein stability index of a GFP-peptide fusion (GPS, HEK-293T) (PSI 1-6); higher = more stable
[1] = treatment: DMSO, c terminus: a fixed tail appended
[2] = treatment: MLN4924 1 uM, 8 h, c terminus: a fixed tail appended
[3] = treatment: DMSO, c terminus: native
[4] = treatment: MLN4924 1 uM, 8 h, c terminus: native
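Note: 24-mer peptide tiles fused after GFP, lentivirally expressed, FACS-sorted into six equal bins by GFP/DsRed ratio, decoded by Illumina sequencing, PSI is the read-weighted mean bin number.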

Row | Sequence | protein stability index [1] | protein stability index [2] | protein stability index [3] | protein stability index [4]
1 | VAPADVRRLLSYCKGRDHGVLDAL [ZSWIM9] | 2.46 ± 0.28 | 2.68 ± 0.46 |  | 
2 | VAPATWSAGVPPSAPLQGAVPPTS [SNAP91] | 4.38 ± 0.25 | 4.39 ± 0.29 |  | 
3 | VAQGPFDSFVVQYEDTNGQPQALL [TNXB] | 3.43 ± 0.44 | 3.16 ± 0.46 |  | 
4 | VARCEVMAAMFNGNYMEAKSVLIP [RHOBTB3] | 2.16 ± 0.29 | 2.24 ± 0.17 |  | 
5 | VDDFRLKYENELALRQSVEADING [KRT13] | 4.67 ± 0.15 | 4.62 ± 0.2 |  | 
6 | VDFLEPDSGTCPEVDEEGFTVRPD [FCHO1] | 5.45 ± 0.086 | 5.43 ± 0.1 |  | 
7 | VDIGMMKEFILTDEEVQRKREMIL [VDR] | 3.24 ± 0.19 | 3.24 ± 0.19 |  | 
8 | VEKNEHCIENNIDLQVNRNFSLAT [R3HDM1] | 4 ± 0.23 | 3.93 ± 0.31 |  | 
9 | VELYRIKFKESFAEMNRGSNEWKT [COX4I1] | 2.23 ± 0.29 | 2.07 ± 0.45 |  | 
10 | VERDNMEEDNVEESEEEGPWEPPV [HDAC6] | 5.58 ± 0.19 | 5.25 ± 0.21 |  | 
11 | VFAPVYFPEELHRKAALEQDLAFW [HMOX1] | 2.14 ± 0.43 | 2.4 ± 0.38 |  | 
12 | VFEKAGVSISVVHGNLSEEAAKQM [CPOX] | 3.72 ± 0.15 | 3.65 ± 0.4 |  | 
13 | VFIIRKSLLDELMEVQHFRTIYHM [SOAT2] | 2.85 ± 0.61 | 2.58 ± 0.46 |  | 
14 | VFLVDICLLTYGMTSSSAYYYTKV [PKD2L1] | 2.98 ± 0.2 | 2.84 ± 0.58 |  | 
15 | VGCKGSKAGIEQEGYWLPGDEISI [ZMYND11] | 3.18 ± 0.32 | 3.13 ± 0.31 |  | 
16 | VGFRLCNSTGGDCFYRGYTSGVAA [SCNN1D] | 2.01 ± 0.58 | 1.94 ± 0.54 |  | 
17 | VGNYRLKEYEKALKYVRGLLQTEP [FIS1] | 2.19 ± 0.22 | 2.5 ± 0.32 |  | 
18 | VGSLPVIVVGRLKVALEPQLWELG [LPCAT4] | 2.74 ± 0.036 | 2.88 ± 0.6 |  | 
19 | VGYGDMHPVTIGGKIVGSLCAIAG [KCNA3] | 2.67 ± 0.11 | 2.26 ± 0.35 |  | 
20 | VHTGCHKKLGPEARRPRTRWGKN |  |  | 2.8 ± 0.5 | 3.08 ± 0.69
21 | VIDAEPFIRCSLQCRDLVDEAKKF [KLHL12] | 2.58 ± 0.46 | 2.35 ± 0.065 |  | 
22 | VILHLKEDQTEYLEERRVKEVVKK [HSP90AB1] | 2.57 ± 0.25 | 2.77 ± 0.36 |  | 

Row | Sequence | protein stability index [1] | protein stability index [2] | protein stability index [3] | protein stability index [4]
23 | VKTGEDGSNLDDAKGLAESLELPK [FANCE] | 5.44 ± 0.18 | 5.49 ± 0.14 |  | 
24 | VKYIVERTMLDFPQHVSSDKEVRA [NLN] | 2.82 ± 0.36 | 2.69 ± 0.25 |  | 
25 | VLCLIVLPLALYTATFAVHFMVLS [POMT2] | 3.17 ± 0.19 | 3.34 ± 0.43 |  | 
26 | VLFAVGGWCSGDAISSVERYDPQT [KLHL20] | 2.12 ± 0.21 | 2.29 ± 0.15 |  | 
27 | VLHIVASLIILHLSGATKKGTEKQ [NETO1] | 2.78 ± 0.57 | 2.9 ± 0.65 |  | 
28 | VLLGEPLVVMAPSPSESSETVLAL [DENND6A] | 2.82 ± 0.36 | 2.52 ± 0.34 |  | 
29 | VMSGKMSVSKAQSIYGIPHSTLEY [LCOR] | 2.38 ± 0.19 | 2.23 ± 0.076 |  | 
30 | VNLFLHFTVNPKPRVEYIDRPRCC [BTBD1] | 3.43 ± 0.18 | 3.12 ± 0.28 |  | 
31 | VNQPNNNGFTPLHFAAASTHGALC [ANKRD44] | 2.99 ± 0.3 | 3.06 ± 0.33 |  | 
32 | VQERLTKQIAVAITEALRPAGVGV [GCH1] | 2.23 ± 0.2 | 2.17 ± 0.13 |  | 
33 | VQLIDDFKISGMNGIHVCMVFEVL [SRPK2] | 2.73 ± 0.62 | 2.71 ± 0.32 |  | 
34 | VQRLTSRAARDYKIQNHGHRVLQR [FCHSD1] | 3.33 ± 0.08 | 3.44 ± 0.1 |  | 
35 | VQRTQSVPVRRPARRRQSAGPWPR [RASAL3] | 4.55 ± 0.26 | 4.48 ± 0.096 |  | 
36 | VRDGFSATFEKILESELLRGTQYS [PSD2] | 2.29 ± 0.35 | 2.31 ± 0.12 |  | 
37 | VRTLEGVFQHHQYLSPLERKRLAR [VENTX] | 3.23 ± 0.23 | 3.54 ± 0.47 |  | 
38 | VRTMQNTNDVETARCTAGTLHNLS [CTNNB1] | 3.57 ± 0.33 | 3.81 ± 0.32 |  | 
39 | VSAYVDTTADLDRKLSFSHSDHSS [SPATS1] | 3.83 ± 0.1 | 4.08 ± 0.24 |  | 
40 | VSISIISSTSGGSGYGFRPSMVSG [KRT71] | 2.84 ± 0.52 | 3.01 ± 0.93 |  | 
41 | VSKTLPSTWSDPSVNISLDNLLPG [CLINT1] | 3.35 ± 0.17 | 3.56 ± 0.16 |  | 
42 | VSLGQKLVAAYVLGLLTMVFLRT [MOSPD3] |  |  | 2.56 ± 0.71 | 2.07 ± 0.42
43 | VTDCKHTEDVGVVCSDKRIPGFKF [LOXL2] | 3.61 ± 0.35 | 3.77 ± 0.16 |  | 
44 | VTDINDNAPKFQAENLDVKINENV [PCDHGA10] | 5.22 ± 0.1 | 5.01 ± 0.37 |  | 

Row | Sequence | protein stability index [1] | protein stability index [2] | protein stability index [3] | protein stability index [4]
45 | VTLIVDNTRFVVDPSIFTAQPNTM [BTBD10] | 2.84 ± 0.51 | 3.2 ± 0.74 |  | 
46 | VTLKYEIKKLIYVHLVIWLLLVAK [JAGN1] | 2.33 ± 0.52 | 2.27 ± 0.3 |  | 
47 | VVAEAQTRVSQLGLQVEGLRRRLE [LRRC45] | 3.71 ± 0.4 | 3.82 ± 0.51 |  | 
48 | VVAVDRDSGQNAWLSYRLLKASEP [PCDHGA10] | 2.56 ± 0.17 | 2.6 ± 0.31 |  | 
49 | VVKVISTIPATLLVDHVGSKTFLC [SLC2A12] | 2.95 ± 0.43 | 2.75 ± 0.37 |  | 
50 | VVPSYIPLVKKHCDDSFTPQEKLW [CPOX] | 2.93 ± 0.15 | 2.98 ± 0.35 |  | 
51 | VVVKLLHPPSHWPLIKATVGLIRN [CTNNB1] | 2.48 ± 0.66 | 2.51 ± 0.64 |  | 
52 | VWTNDQVVHWVQSIGLRDYAGNLH [PPFIA4] | 2.16 ± 0.53 | 2.11 ± 0.29 |  | 
53 | VWWVSQFVKYLIRPQPWLEKEIEE [FUT8] | 2.32 ± 0.46 | 2.035 ± 0.002 |  | 
54 | VYRAELVGELNGYLRDSSPAPCAD [PWWP2B] | 3.31 ± 0.21 | 3.52 ± 0.27 |  | 
55 | VYRDLKPENILLDRDGHIKLTDFG [PRKX] | 3.07 ± 0.28 | 3.54 ± 0.24 |  | 
56 | VYSLEPRLCGGKGGFGSMLRALGA [SDE2] | 2.24 ± 0.45 | 2.1 ± 0.081 |  | 
57 | WDLRDQSVVRDLKGYPDGVKSIVV [TLE6] | 2.63 ± 0.25 | 2.63 ± 0.077 |  | 
58 | WKCKNARGQVGLVPKNYVVVLSDG [NCK2] | 2.15 ± 0.26 | 2.31 ± 0.45 |  | 
59 | WMWLSCSSFFQQFFHCYCPVGFGR [CRY1] | 2.42 ± 0.2 | 2.4 ± 0.25 |  | 
60 | WVTFQVLLYTSLPDFCHKFLPGYV [DHCR7] | 3.4 ± 0.055 | 3.01 ± 0.91 |  | 
61 | YADFERFSKVLEEAAAAEEGLREL [DAPK3] | 2.46 ± 0.18 |  |  | 
62 | YAIAGYDGNSLLSSIECYDPIIDS [KLHL12] | 2.83 ± 0.48 | 3.01 ± 0.36 |  | 
63 | YDGLDCQARQFRTFHHPTYGSCYT [SCNN1D] | 2.54 ± 0.1 | 2.59 ± 0.18 |  | 
64 | YESDSSNHCMLSPSSSGHLADSDT [C18orf25] | 5.18 ± 0.33 | 5.28 ± 0.21 |  | 
65 | YFTQTLLPGLAGPSGEMVKSTTSL [MLH1] |  | 2.51 ± 0.21 |  | 
66 | YHTSQSGDEMTSLSEYVSRMKETQ [HSP90AB1] | 3.9 ± 0.25 | 3.96 ± 0.23 |  | 

Row | Sequence | protein stability index [1] | protein stability index [2] | protein stability index [3] | protein stability index [4]
67 | YIAAFLHVLLPVALEFQPQLVLVA [HDAC6] | 3.25 ± 0.84 | 3.14 ± 0.41 |  | 
68 | YKDTCHELDELQLCKNCFYLSNAR [ZMYND11] | 2.66 ± 0.31 | 3.02 ± 0.25 |  | 
69 | YKGLFEVNPWKREVKLLLSSETPI [APMAP] | 2.71 ± 0.3 | 2.14 ± 0.18 |  | 
70 | YKVRHVHWKTWLAIKCSPSLHVDD [RIPK4] | 2.16 ± 0.34 | 1.98 ± 0.44 |  | 
71 | YLEVAKHFKPHGFSSDKAKAGSSE [ATF4] | 3.97 ± 0.092 | 4.24 ± 0.33 |  | 
72 | YLGSAYHASKCEFLANLHITALLN [DUSP5] | 2.58 ± 0.69 | 2.61 ± 0.47 |  | 
73 | YLLDRAVDSFETQRNGLVFIYDMC [PTPN9] | 2.36 ± 0.47 | 2.29 ± 0.29 |  | 
74 | YLTIILILISFTCRFLLNSRVTDA [TMEM120A] | 3.19 ± 0.26 | 3.12 ± 0.24 |  | 
75 | YLTNCEKLSAKSLQTLRSFSHTLV [ZER1] | 2.3 ± 0.16 | 2.24 ± 0.38 |  | 
76 | YMVRRYFNKPSRVPAPEAFRDPIW [MYORG] | 2.27 ± 0.25 | 2.12 ± 0.39 |  | 
77 | YNIRTDSWTTVTSMTTPRCYVGAT [KLHL12] | 2.44 ± 0.23 | 2.67 ± 0.33 |  | 
78 | YNSFHKLRDRAERIASRAIDNAAD [SNX8] | 3.98 ± 0.43 | 4.14 ± 0.38 |  | 
79 | YQGLPVRCVKSIIRQVLQGLDYLH [SRPK2] | 2.45 ± 0.27 | 2.59 ± 0.41 |  | 
80 | YQYFVCPVEYRSDVNSFVTECEPS [CDS1] | 2.35 ± 0.26 | 2.36 ± 0.37 |  | 
81 | YRGTLKRQPAFDTFDGSLFAVFPS [ETS2] | 2.31 ± 0.42 | 2.08 ± 0.14 |  | 
82 | YSSEDSTLASVPPAATFGADDLVL [ELF3] | 4.5 ± 0.13 | 4.48 ± 0.22 |  | 
83 | YTPTAEDSAQMQNGGPSTPPASPP [ANKRD40] | 5.27 ± 0.22 | 5.16 ± 0.2 |  | 
84 | YVALFPCNECAKLIIQAGIKEVIF [DCTD] | 2.73 ± 1.2 | 2.96 ± 0.54 |  | 
85 | YVDIQGLTASTMEILLDFVYTETV [KLHL12] | 3.564 ± 0.008 | 3.1 ± 1.2 |  | 
86 | YYIPLVELVPHPETAPTTVDRTHA [CRYL1] | 3.06 ± 0.28 | 3.1 ± 0.26 |  | 
